In paper PMC10251477, “Doubly Constrained C-terminal of Roc (COR) Domain-Derived Peptides Inhibit Leucine-Rich Repeat Kinase 2 (LRRK2) Dimerization” (ACS Chemical Neuroscience, 2023) one finds stoichiometry N data, which are given here for one substance.

By stoichiometry N is commonly meant the number of molecules, sites or subunits per partner or assembly.

For this test, the target named is Purified full-length LRRK2 (UniProt Q5S007). The test is described as follows: mass photometry; LRRK2 at 150 nM or 200 nM incubated with constrained peptide 1:7.5 for 30 min at 30 °C; 10 uL added to 10 uL buffer (50 mM HEPES, 150 mM NaCl, 5 mM MgCl2, 1 mM DTT, 0.1 mM GDP, 1% glycerol); Refeyn TwoMP; percentage of dimer from molecular weight. The conditions noted are these: remark: other sources report otherwise.

“Purified full-length LRRK2, Q5S007 1-2527” gave a stoichiometry N of 2.
